From article PMC7603899 (Journal of molecular biology, 2020)

Molecular target: the molecule itself
Assay: crystal structure

B1: Atg11 residues 699-800 (Atg11_(699-800)) (domain or fragment, S. cerevisiae, UniProt Q12527 699-800, looked up)
chain: NNHQIQELESNVDDLLHQLQLLKEENNRKSMQISEMGKKISDLEVEKTAYRETLTNLNQELARLTNEEQSHRTEIFTLNASFKKQLNDIISQDNEKIEKLTG
**Q.** B1 was tested. Which “stoichiometry N” value did it give?
**A.** 2
